In patent US20140086936:

Biological target: hemagglutinin (HA0) of influenza A/Puerto Rico/8/34 (PR8) virus, P03452

B1: Recombinant purified human matriptase (amino acids 596-855) (protein)
chain: GSDEKDCDCGLRSFTRQARVVGGTDADEGEWPWQVSLHALGQGHICGASLISPNWLVSAAHCYIDDRGFRYSDPTQWTAFLGLHDQSQRSAPGVQERRLKRIISHPFFNDFTFDYDIALLELEKPAEYSSMVRPICLPDASHVFPAGKAIWVTGWGHTQYGGTGALILQKGEIRVINQTTCENLLPQQITPRMMCVGFLSGGVDSCQGDSGGPLSSVEADGRIFQAGVVSWGDGCAQRNKPGVYTRLPLFRDWIKENTGV
cleavage of HA0 to HA1, Western blot: matriptase was able to cleave viral HA
